Data taken from patent US20180179283A1.

Experiments:
[1] = biological target: HLA-A2/WT1 126-134 peptide complex on cells (human); assay: FACS, T2 cells loaded with 10^-4M WT1 peptide
Unloaded T2 (human) = assay: FACS, unloaded T2 cells, anti-human PE
[2] = biological target: HLA-A2 positive, antigen negative cells; assay: FACS, 501A cells (melanoma, WT1 mRNA -)
[3] = biological target: HLA-A2/Tyrosinase 369-377 peptide complex on cells (human); assay: FACS, T2 cells loaded with TyrD [..], anti-human PE
[4] = biological target: HLA-A2 positive, antigen negative cells; assay: FACS, SKMEL-5 cells (melanoma, WT1 mRNA -)
[5] = biological target: HLA-A2/WT1-S6 peptide on T2 cells (human); assay: FACS, T2 cells loaded with WT1-S6 [..], anti-human PE
[6] = biological target: HLA-A2/WT1-S7 peptide on T2 cells (human); assay: FACS, T2 cells loaded with WT1-S7 [..], anti-human PE
[7] = biological target: HLA-A2 positive, antigen negative cells; assay: FACS, JVM-2 cells (lymphoblast, WT1 mRNA -)
[8] = biological target: HLA-A2/WT1-S10 peptide on T2 cells (human); assay: FACS, T2 cells loaded with WT1-S10 [..], anti-human PE
[9] = biological target: HLA-A2/WT1 126-134 peptide complex on cells (human); assay: FACS, BV173 cells (B cell precursor leukemia, WT1 mRNA +)
[10] = biological target: HLA-A2/WT1 126-134 peptide complex on cells (human); assay: FACS, SET-2 cells (essential thrombocythemia, WT1 mRNA +)
[11] = biological target: HLA-A2 positive, antigen negative cells; assay: FACS, IM-9 cells (multiple myeloma, WT1 mRNA -)
[12] = biological target: HLA-A2 positive, antigen negative cells; assay: FACS, U266 cells (multiple myeloma, WT1 mRNA -)
[13] = biological target: HLA-A2/PAP 112-120 peptide complex on cells (human); assay: FACS, T2 cells loaded with PAP112, anti-human PE
[14] = biological target: HLA-A2/WT1 126-134 peptide complex on cells (human); assay: FACS, T2 cells loaded with WT1 peptide 1x10e-4M, anti-human PE
[15] = biological target: HLA-A2/WT1 126-134 peptide complex on cells (human); assay: FACS, T2 cells loaded with WT1 peptide 1x10e-5M, anti-human PE
[16] = biological target: HLA-A2/WT1 126-134 peptide complex on cells (human); assay: FACS, T2 cells loaded with WT1 1x10e-4M in DMSO, anti-human PE
[17] = biological target: HLA-A2/MAGE-A4 230-239 peptide complex on cells (human); assay: FACS, T2 cells loaded with MAGE-A4 [..], anti-human PE
[18] = biological target: HLA-A2/MAGE-A9 223-231 peptide complex on cells (human); assay: FACS, T2 cells loaded with MAGE-A9 [..], anti-human PE
[19] = biological target: HLA-A2/WT1-S13 peptide on T2 cells (human); assay: FACS, T2 cells loaded with WT1-S13 [..], anti-human PE
[20] = biological target: HLA-A2/WT1-S16 peptide on T2 cells (human); assay: FACS, T2 cells loaded with WT1-S16 [..], anti-human PE
[21] = biological target: HLA-A2/WT1-S22 peptide on T2 cells (human); assay: FACS, T2 cells loaded with WT1-S22 [..], anti-human PE
[22] = biological target: HLA-A2/WT1-S11 peptide on T2 cells (human); assay: FACS, T2 cells loaded with WT1-S11 [..] (heteroclitic pep.), anti-human PE
[23] = biological target: HLA-A2 positive, antigen negative cells; assay: FACS, A498 cells (printed: non-small cell lung adenocarcinoma, WT1 mRNA -)

Work on ESK1 TCR-like antibody yielded an MFI [1] of 18, an MFI (Unloaded T2 (human)) of 1 and an MFI [2] of 10.7. For the same substance, the MFI [3] was 1, the MFI [4] was 4.3 and the MFI [5] was 5. For the same substance, the MFI [6] was 3.1, the MFI [7] was 1 and the MFI [8] was 1.4. For the same substance, the MFI [9] was 8.1, the MFI [10] was 26.3 and the MFI [11] was 1.2. It also gave an MFI [12] of 1.9, an MFI [13] of 1.1 and an MFI [14] of 17.9. The MFI [15] was 1.6, the MFI [16] was 17.9 and the MFI [17] was 1.1. For the same substance, the MFI [18] was 1, the MFI [19] was 1.1 and the MFI [20] was 1.1. It also gave an MFI [21] of 1.1, an MFI [22] of 1.1 and an MFI [23] of 5.2.
